Target: Aβ42 (human) (UniProt P05067)
Sequence (P05067 672-713): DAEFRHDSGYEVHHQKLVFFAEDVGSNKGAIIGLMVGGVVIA

reaction half time (t1/2) of ThT-monitored fibril formation of 5 μM monomeric Aβ42 in the presence of 15 μM S100B, 50 mM Hepes pH 7.4, 1.1 mM CaCl2, 37°C, quiescent (Aβ42 alone t1/2 = 0.8 h): 2.2 h
B1: S100B (natural protein)
chain: MSELEKAMVALIDVFHQYSGREGDKHKLKKSELKELINNELSHFLEEIKEQEVVDKVMETLDNDGDGECDFQEFMAFVAMVTTACHEFFEHE

From article PMC6596341
